Reference: paper PMC9332313, “Folding and Binding Mechanisms of the SH2 Domain from Crkl” (Biomolecules, 2022)
Square brackets hold non-standard residues; d marks the D form. Ends that are not written are not given here. * marks the point of attachment. pY = N[C@@H](Cc1ccc(OP(=O)(O)O)cc1)C(=O)O; Dansyl = CN(C)c1cccc2c(S(=O)(=O)*)cccc12

Columns and labels:
Settings in all cases: both partners purified
[1] = molecular target: T1, SH2 domain of Crkl protein (residues 1-111), wild type (UniProt P46109 1-111); assay: stopped-flow fluorescence kinetics (FRET); dansyl-Pax112-123 constant at 2 μM mixed with Crkl-SH2 2 to 10 μM (pseudo-first-order, kon); koff by displacement of the preincubated 2 µM complex with excess non-dansylated Pax112-123 (30 μM); 283 K; 50 mM BisTRIS pH 6.8, 0.5 M NaCl
T1 construct: Crkl adaptor protein, SH2 domain, residues 1-111; Subcloned in pET28b+; all experiments were done on the N-terminally His-tagged protein; also called Crkl-SH2; Crkl SH2 domain; source: E. coli BL21 (DE3), purified (HisTrap nickel column, desalting); not shown: His tag, N-terminal, kept

[2] = molecular target: T1, SH2 domain of Crkl protein (residues …); assay: stopped-flow fluorescence kinetics (FRET); dansyl-Pax112-123 constant at 2 μM mixed with Crkl-SH2 2 to 10 μM (pseudo-first-order, kon); koff by displacement of the preincubated 2 µM complex with excess non-dansylated Pax112-123 (30 μM); 283 K; 50 mM TrisHCl pH 8.0, 0.5 M NaCl
[3] = molecular target: T2, SH2 domain of Crkl protein (residues 1-111), H33A variant (UniProt P46109 1-111, H33A); assay: as above
T2 construct: Crkl adaptor protein, SH2 domain, residues 1-111, His33 replaced by alanine; Site-directed mutant of m1 (QuikChange); source: E. coli BL21 (DE3), purified (HisTrap nickel column, desalting); not shown: His tag, N-terminal, kept

[4] = molecular target: T3, SH2 domain of Crkl protein (residues 1-111), H80A variant (UniProt P46109 1-111, H80A); assay: as above
T3 construct: Crkl adaptor protein, SH2 domain, residues 1-111, His80 replaced by alanine; Site-directed mutant of m1 (QuikChange); source: E. coli BL21 (DE3), purified (HisTrap nickel column, desalting); not shown: His tag, N-terminal, kept

[5] = molecular target: T4, SH2 domain of Crkl protein (residues 1-111), H91A variant (UniProt P46109 1-111, H91A); assay: as above
T4 construct: Crkl adaptor protein, SH2 domain, residues 1-111, His91 replaced by alanine; Site-directed mutant of m1 (QuikChange); source: E. coli BL21 (DE3), purified (HisTrap nickel column, desalting); not shown: His tag, N-terminal, kept

[6] = molecular target: T1, SH2 domain of Crkl protein (residues …); assay: stopped-flow fluorescence kinetics (FRET); dansyl-Pax112-123 constant at 2 μM mixed with Crkl-SH2 2 to 10 μM (pseudo-first-order, kon); koff by displacement of the preincubated 2 µM complex with excess non-dansylated Pax112-123 (30 μM); 283 K; 50 mM TrisHCl pH 9.0, 0.5 M NaCl
[7] = molecular target: T2, SH2 domain of Crkl protein (residues …); assay: as above
[8] = molecular target: T3, SH2 domain of Crkl protein (residues …); assay: as above
[9] = molecular target: T4, SH2 domain of Crkl protein (residues …); assay: as above
[10] = molecular target: T3, SH2 domain of Crkl protein (residues …); assay: stopped-flow fluorescence kinetics (FRET); dansyl-Pax112-123 constant at 2 μM mixed with Crkl-SH2 2 to 10 μM (pseudo-first-order, kon); koff by displacement of the preincubated 2 µM complex with excess non-dansylated Pax112-123 (30 μM); 283 K; 50 mM sodium-acetate pH 5.0, 0.5 M NaCl

T1 sequence (P46109 1-111): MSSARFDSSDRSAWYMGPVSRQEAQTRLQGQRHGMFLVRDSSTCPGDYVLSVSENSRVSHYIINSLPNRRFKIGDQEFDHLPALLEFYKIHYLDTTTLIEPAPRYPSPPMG
T2 sequence (P46109 1-111 H33A): as the sequence (P46109 1-111) above, with H33A counted along it
T4 sequence (P46109 1-111 H91A): as the sequence (P46109 1-111) above, with H91A counted along it
T3 sequence (P46109 1-111 H80A): as the sequence (P46109 1-111) above, with H80A counted along it

B1: dansylated Pax_(112–123) peptide (Dans-GEEEHV-pY-SFPNK) (peptide)
peptide: Dansyl-GEEEHV[pY]SFPNK
notes: The dansyl group is the FRET acceptor of Trp14 of the SH2 domain; source: synthetic peptide, bought: GenScript
[1]
  Kd: 2400 ± 100 nM
  koff: 21.4 ± 0.2 s⁻¹
  kon: 8.9e+06 ± 400000 M⁻¹ s⁻¹
[2]
  Kd: 3100 ± 200 nM
  koff: 41.4 ± 0.9 s⁻¹
  kon: 1.32e+07 ± 700000 M⁻¹ s⁻¹
[3]
  Kd: 2000 ± 300 nM
  koff: 29.3 ± 3.4 s⁻¹
  kon: 1.46e+07 ± 1.1e+06 M⁻¹ s⁻¹
[4]
  Kd: 2300 ± 300 nM
  koff: 30.1 ± 3.3 s⁻¹
  kon: 1.32e+07 ± 700000 M⁻¹ s⁻¹
[5]
  Kd: 2900 ± 100 nM
  koff: 39 ± 0.7 s⁻¹
  kon: 1.32e+07 ± 500000 M⁻¹ s⁻¹
[6]
  Kd: 2500 ± 200 nM
  koff: 36.1 ± 0.6 s⁻¹
  kon: 1.41e+07 ± 900000 M⁻¹ s⁻¹
[7]
  Kd: 4200 ± 500 nM
  koff: 44.7 ± 4 s⁻¹
  kon: 1.06e+07 ± 1e+06 M⁻¹ s⁻¹
[8]
  Kd: 2800 ± 300 nM
  koff: 34 ± 2.3 s⁻¹
  kon: 1.2e+07 ± 900000 M⁻¹ s⁻¹
[9]
  Kd: 2900 ± 100 nM
  koff: 36.4 ± 0.5 s⁻¹
  kon: 1.27e+07 ± 500000 M⁻¹ s⁻¹
[10]
  Kd: 11500 ± 1200 nM
  koff: 52.7 ± 3.2 s⁻¹
  kon: 4.6e+06 ± 400000 M⁻¹ s⁻¹
